Experimental data as given in the supplement of paper PMC7125110.
± gives the standard error. This sample holds only a part of the variants without activity.

B1: glmS ribozyme (parent)
chain: AUAAAAGCGCCAGAACUACAGAAAUGUAGUUGACGAGGAGGAGGUUUAUCGAAUUUUCGGCGGAUGCCUCCAAA

Variants of: B1
Assay: self-cleavage kobs at 640 uM GlcN6P; higher = faster cleavage; RNA array
Details: with glucosamine-6-phosphate
Procedure, shortened: (§1)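 On sequenced MiSeq chips, barcoded ribozyme variants were made in situ by E. coli RNA polymerase and followed at 37 °C through a hybridised Cy3 probe. Glucosamine-6-phosphate was flowed in at 40 μM to 10 mM in HEPES/KCl/Mg(OAc)2 buffer. Exponential fits to normalised per-tile medians gave kobs, and weighted Michaelis–Menten fits gave kcat and KM.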

Variant | self-cleavage kobs at 640 uM GlcN6P
A33U U57G C68G | 0.000105 ± 2.8e-05 s⁻¹
C34U G43C | < 1e-05 s⁻¹
G60U C71A | < 1e-05 s⁻¹
G41C G51U U55G | < 1e-05 s⁻¹
U47G A48G G63A | < 1e-05 s⁻¹
G32U A33U U45A | < 1e-05 s⁻¹
U46G C50U A53C A64U | < 1e-05 s⁻¹
U46G U55G U69G | 0.000454 ± 0.00015 s⁻¹
A33G G40C G41C G43A U49A | < 1e-05 s⁻¹
A39U G63C C71G | < 1e-05 s⁻¹
G44A C61A C71U | < 1e-05 s⁻¹
G37A G41C C50U U65G | < 1e-05 s⁻¹
C34A G43A G51C U56G | < 1e-05 s⁻¹
U45A U46C U47G C70U | 0.000175 ± 8.3e-05 s⁻¹
G32C G35U G59A | < 1e-05 s⁻¹
G40C U54C U56A | 0.000313 ± 5.9e-05 s⁻¹
G35C G38A | < 1e-05 s⁻¹
G40U C61G U65G | < 1e-05 s⁻¹
G38U A52C A53C C68A C71U | 0.000617 ± 0.00024 s⁻¹
G44A U65C | < 1e-05 s⁻¹
G32C G51C A64G C70U | < 1e-05 s⁻¹
A39C G60U G66U | < 1e-05 s⁻¹

Variants of: B1
Assay: self-cleavage kobs at 2500 uM GlcN6P; higher = faster cleavage; RNA array
Details: with glucosamine-6-phosphate
Procedure, shortened: as §1

Variant | self-cleavage kobs at 2500 uM GlcN6P
A33U U57G C68G | 0.000205 ± 7e-05 s⁻¹
C8A G59A C70U | < 1e-05 s⁻¹
G60U C71A | < 1e-05 s⁻¹
G7A A12G G35A | < 1e-05 s⁻¹
G41C G51U U55G | < 1e-05 s⁻¹
A6U A36U G37C A48U | < 1e-05 s⁻¹
C8G C16G G40C | < 1e-05 s⁻¹
U46G C50U A53C A64U | < 1e-05 s⁻¹
U46G U55G U69G | 6.16e-05 ± 1.8e-05 s⁻¹
A33G G40C G41C G43A U49A | < 1e-05 s⁻¹
A39U G63C C71G | < 1e-05 s⁻¹
G44A C61A C71U | < 1e-05 s⁻¹
G7A A48G C70U | < 1e-05 s⁻¹
G37A G41C C50U U65G | < 1e-05 s⁻¹
G7C U30G G37A | < 1e-05 s⁻¹
G32C G35U G59A | < 1e-05 s⁻¹
G40C U54C U56A | 0.000505 ± 0.00011 s⁻¹
A6G G38C G41U C68U | < 1e-05 s⁻¹
A6G A12C G37C U45A C70U | < 1e-05 s⁻¹
G35C G38A | < 1e-05 s⁻¹
G7C A12U A39G A53U | < 1e-05 s⁻¹
G40U C61G U65G | < 1e-05 s⁻¹
C8G A15G U30C A42G U45A U46G | < 1e-05 s⁻¹
G7A C11A A12U G32A G60A C61G | < 1e-05 s⁻¹
A39C G60U G66U | < 1e-05 s⁻¹

Variants of: B1
Assay: self-cleavage kobs at 10000 uM GlcN6P; higher = faster cleavage; RNA array
Details: with glucosamine-6-phosphate
Procedure, shortened: as §1

Variant | self-cleavage kobs at 10000 uM GlcN6P
G60U C71A | < 1e-05 s⁻¹
